Biological target: T1, Anopheline antiplatelet protein (AAPP) (Anopheles stephensi (endogenous in …, UniProt Q7YT37))
T1 construct: Anopheline antiplatelet protein (AAPP), predominant saliva protein of Anopheles stephensi; acidic secretory protein, Mr = 37 kDa on immunoblots; Same endogenous protein in saliva and in salivary gland lysates; in TG mosquitoes it is present together with mDsRed-8H7scFv; source: endogenous, Anopheles stephensi saliva and salivary gland lysates/homogenates (WT and TG mosquitoes)
T1 sequence (Q7YT37 20-269): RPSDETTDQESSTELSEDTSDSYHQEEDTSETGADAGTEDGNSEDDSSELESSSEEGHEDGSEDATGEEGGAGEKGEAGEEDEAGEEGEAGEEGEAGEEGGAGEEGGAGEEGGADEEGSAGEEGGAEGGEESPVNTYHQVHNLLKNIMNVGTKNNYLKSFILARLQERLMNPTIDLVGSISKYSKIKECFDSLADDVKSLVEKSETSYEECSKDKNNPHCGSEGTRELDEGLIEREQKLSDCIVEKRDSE
Assay: pull-down; Ni-NTA beads added to lysates (Cellytic M) of dissected salivary glands of TG and WT mosquitoes, 1 h on ice, washed with PBS; His-tagged mDsRed-8H7scFv held on the resin; eluate blotted with anti-AAPP mAb 28B8 and anti-mDsRed polyclonal Ab
Conditions: partners not purified

B1: mDsRed-8H7scFv (scFv, V domains shown)
VH: QVQLQQPGAELVRPGASVKLSCKASGYTFTSYWMNWVKQRPGQGLEWIGLIDPSDSETHYNQMFKDKATLTVDKSSSTAYMQLSSLTSEDSAVYYCARGGTYWGQGTTLTVSS
VL: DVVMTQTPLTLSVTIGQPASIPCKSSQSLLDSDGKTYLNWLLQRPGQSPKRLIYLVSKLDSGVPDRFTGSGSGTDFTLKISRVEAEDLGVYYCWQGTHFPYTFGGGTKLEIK
notes: VH of the anti-AAPP mAb 8H7; hinge/linker, printed as (Gly4Ser)3; VL of the anti-AAPP mAb 8H7; 54.6 kDa on blots; 8H7scFv is fused to monomeric DsRed through Gly4Ser x 3 linkers; The secretion signal is not described; also called anti-AAPP scFv; anti-AAPP antibody single-chain fragment; source: transgenic Anopheles stephensi (TG-03, TG-30, TG-37), expressed in salivary glands under the aapp …
B1: binds.

From article PMC6395645, “Anopheline antiplatelet protein from mosquito saliva regulates blood feeding behavior” (Scientific Reports, 2019)
